Measured values as given in paper PMC9467508, “DNA passes through cohesin’s hinge as well as its Smc3–kleisin interface” (eLife, 2022).
Positions count from the first letter of the chain named.

What was measured:
Test in all cases: cross-linking; BMOE (0.64 mM) cross-linking of engineered cysteine pairs; 0.7 uM cohesin (Smc1, Smc3, and Scc1) and Scc2 in 25 mM HEPES pH 7.5, 50 mM NaCl, 1 mM MgCl2, 1 mM TCEP, 5% glycerol; 24°C, 5 min; with or without 10 mM ATP and 60 nM supercoiled pUC19; SDS-PAGE
Details in all cases: both partners purified
[1] = biological target: T1, cohesin (Smc1-His E1102C, Smc3, Scc1-StrepII) (S. cerevisiae, UniProt P32908 1-1225; P47037 1-1230; Q12158 1-566, E1102C)
T1 construct: Smc1, cohesin subunit, S. cerevisiae; Smc3, cohesin subunit, S. cerevisiae; Scc1 (kleisin subunit of cohesin), S. cerevisiae; Tied to the cross-linking experiment by its substitution; also called Smc1E1102C; cohesin (Smc1, Smc3, and Scc1); source: prepared as described in Collier et al., 2020 (pACEbac1i plasmid); purified; copies: + +
T1 sequence (P32908 whole entry E1102C, chain 1 of 3): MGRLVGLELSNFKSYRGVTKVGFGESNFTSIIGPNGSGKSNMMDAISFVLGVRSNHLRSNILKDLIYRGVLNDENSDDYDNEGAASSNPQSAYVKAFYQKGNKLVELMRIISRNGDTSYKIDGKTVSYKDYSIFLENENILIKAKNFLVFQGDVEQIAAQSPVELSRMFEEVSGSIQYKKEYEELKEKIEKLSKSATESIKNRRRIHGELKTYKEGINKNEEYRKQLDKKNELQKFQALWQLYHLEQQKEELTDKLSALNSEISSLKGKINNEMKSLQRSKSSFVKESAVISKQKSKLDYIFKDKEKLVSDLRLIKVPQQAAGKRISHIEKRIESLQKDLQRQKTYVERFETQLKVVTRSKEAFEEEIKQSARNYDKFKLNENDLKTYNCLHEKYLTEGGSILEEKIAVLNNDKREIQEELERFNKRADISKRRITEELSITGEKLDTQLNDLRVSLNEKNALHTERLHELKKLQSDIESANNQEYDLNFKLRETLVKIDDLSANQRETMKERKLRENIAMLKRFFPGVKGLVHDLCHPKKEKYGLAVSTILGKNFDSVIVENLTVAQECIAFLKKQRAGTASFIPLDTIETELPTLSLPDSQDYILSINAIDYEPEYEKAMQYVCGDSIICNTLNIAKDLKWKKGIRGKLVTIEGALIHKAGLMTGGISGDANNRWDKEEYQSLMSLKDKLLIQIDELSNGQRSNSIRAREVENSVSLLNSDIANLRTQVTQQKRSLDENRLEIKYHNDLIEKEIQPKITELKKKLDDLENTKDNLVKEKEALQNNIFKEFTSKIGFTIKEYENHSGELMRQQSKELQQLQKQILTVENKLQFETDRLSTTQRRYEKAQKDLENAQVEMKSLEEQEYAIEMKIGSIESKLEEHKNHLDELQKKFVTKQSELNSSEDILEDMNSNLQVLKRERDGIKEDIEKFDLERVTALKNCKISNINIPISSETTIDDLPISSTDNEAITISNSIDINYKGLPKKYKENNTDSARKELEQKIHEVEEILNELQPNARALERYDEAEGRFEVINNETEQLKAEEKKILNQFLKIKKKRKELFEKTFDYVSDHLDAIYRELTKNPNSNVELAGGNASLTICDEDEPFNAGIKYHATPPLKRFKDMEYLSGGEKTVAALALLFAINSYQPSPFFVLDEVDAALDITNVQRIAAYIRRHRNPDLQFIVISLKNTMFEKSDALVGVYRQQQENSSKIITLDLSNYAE
T1 sequence (P47037 whole entry, chain 2 of 3): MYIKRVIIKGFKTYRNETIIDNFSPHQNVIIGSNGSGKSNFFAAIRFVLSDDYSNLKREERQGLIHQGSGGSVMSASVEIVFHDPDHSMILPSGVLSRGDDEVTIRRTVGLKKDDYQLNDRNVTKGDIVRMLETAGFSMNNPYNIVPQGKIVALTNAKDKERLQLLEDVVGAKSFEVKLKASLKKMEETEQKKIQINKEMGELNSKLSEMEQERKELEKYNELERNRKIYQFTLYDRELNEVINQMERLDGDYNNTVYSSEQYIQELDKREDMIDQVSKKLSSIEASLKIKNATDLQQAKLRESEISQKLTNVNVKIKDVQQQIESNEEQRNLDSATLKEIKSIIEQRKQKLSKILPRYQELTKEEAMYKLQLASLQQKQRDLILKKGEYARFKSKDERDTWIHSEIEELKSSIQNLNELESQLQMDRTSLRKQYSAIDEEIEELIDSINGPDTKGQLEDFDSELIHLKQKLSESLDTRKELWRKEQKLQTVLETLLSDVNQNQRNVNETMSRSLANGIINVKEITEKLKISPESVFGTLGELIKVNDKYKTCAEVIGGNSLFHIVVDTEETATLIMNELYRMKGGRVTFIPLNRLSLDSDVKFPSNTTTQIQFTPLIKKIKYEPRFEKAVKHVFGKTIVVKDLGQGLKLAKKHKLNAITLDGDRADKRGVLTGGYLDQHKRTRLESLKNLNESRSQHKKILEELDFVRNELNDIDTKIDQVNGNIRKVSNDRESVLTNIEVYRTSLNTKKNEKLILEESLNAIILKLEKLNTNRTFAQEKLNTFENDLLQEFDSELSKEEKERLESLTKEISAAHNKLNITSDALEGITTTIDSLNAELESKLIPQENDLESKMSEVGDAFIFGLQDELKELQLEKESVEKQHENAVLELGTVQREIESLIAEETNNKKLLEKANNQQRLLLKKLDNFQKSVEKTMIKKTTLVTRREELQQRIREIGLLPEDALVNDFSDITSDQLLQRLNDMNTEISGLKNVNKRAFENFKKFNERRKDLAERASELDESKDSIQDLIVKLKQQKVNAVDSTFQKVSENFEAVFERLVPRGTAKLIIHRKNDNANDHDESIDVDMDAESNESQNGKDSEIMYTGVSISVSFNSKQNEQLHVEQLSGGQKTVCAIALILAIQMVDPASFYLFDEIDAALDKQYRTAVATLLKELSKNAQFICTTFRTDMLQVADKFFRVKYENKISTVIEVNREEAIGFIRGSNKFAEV
T1 sequence (Q12158 whole entry, chain 3 of 3): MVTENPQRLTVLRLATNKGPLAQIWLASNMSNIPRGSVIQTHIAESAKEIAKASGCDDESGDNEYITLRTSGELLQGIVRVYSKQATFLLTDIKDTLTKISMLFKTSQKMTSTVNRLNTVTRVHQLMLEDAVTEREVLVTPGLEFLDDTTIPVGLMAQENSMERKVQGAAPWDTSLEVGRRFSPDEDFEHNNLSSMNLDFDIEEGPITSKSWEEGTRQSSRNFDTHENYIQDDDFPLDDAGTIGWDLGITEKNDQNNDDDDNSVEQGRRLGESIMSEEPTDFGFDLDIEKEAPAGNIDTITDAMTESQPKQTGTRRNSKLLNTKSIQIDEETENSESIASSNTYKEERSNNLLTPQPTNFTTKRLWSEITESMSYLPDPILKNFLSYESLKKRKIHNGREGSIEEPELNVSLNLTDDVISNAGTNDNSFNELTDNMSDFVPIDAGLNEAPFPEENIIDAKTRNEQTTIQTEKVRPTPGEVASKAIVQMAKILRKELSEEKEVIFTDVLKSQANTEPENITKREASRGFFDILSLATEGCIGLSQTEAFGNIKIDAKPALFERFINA

[2] = biological target: T2, cohesin (Smc1, Smc3 S72C, Scc1-StrepII) (S. cerevisiae, UniProt P32908 1-1225; P47037 1-1230; Q12158 1-566, S72C)
T2 construct: Smc1, cohesin subunit, S. cerevisiae; Smc3, cohesin subunit, S. cerevisiae; Scc1 (kleisin subunit of cohesin), S. cerevisiae; Tied to the cross-linking experiment by its substitution; also called cohesin (Smc1, Smc3, and Scc1); source: prepared as described in Collier et al., 2020 (pACEbac1i plasmid); purified; copies: + +
T2 sequence (P32908 whole entry, chain 1 of 3): as the sequence (P32908 whole entry E1102C, chain 1 of 3) above, with C1102E counted along it
T2 sequence (P47037 whole entry S72C, chain 2 of 3): as the sequence (P47037 whole entry, chain 2 of 3) above, with S72C counted along it
T2 sequence (Q12158 whole entry, chain 3 of 3): as the sequence (Q12158 whole entry, chain 3 of 3) above

[3] = biological target: T3, cohesin (Smc3 K1004C, Smc1, Scc1-StrepII) (S. cerevisiae, UniProt P32908 1-1225; P47037 1-1230; Q12158 1-566, K1004C)
T3 construct: Smc1, cohesin subunit, S. cerevisiae; Smc3, cohesin subunit, S. cerevisiae; Scc1 (kleisin subunit of cohesin), S. cerevisiae; Tied to the cross-linking experiment by its substitution; also called cohesin (Smc1, Smc3, and Scc1); source: prepared as described in Collier et al., 2020 (pACEbac1i plasmid); purified; copies: + +
T3 sequence (P32908 whole entry, stated change not applied, chain 1 of 3): as the sequence (P32908 whole entry E1102C, chain 1 of 3) above, with C1102E counted along it
T3 sequence (P47037 whole entry K1004C, chain 2 of 3): as the sequence (P47037 whole entry, chain 2 of 3) above, with K1004C counted along it
T3 sequence (Q12158 whole entry, chain 3 of 3): as the sequence (Q12158 whole entry, chain 3 of 3) above

B1: Scc2 133-1493-StrepII T1281C (domain or fragment, S. cerevisiae, UniProt Q04002 133-1493, looked up)
chain: KSEIVSRPEAKHKLESVTSNAGNLSFNDNSSNKKTKTSTGVTMTQANLAEQYLNDLKNILDIVGFDQNSAEIGNIEYWLQLPNKKFVLTTNCLTKLQMTIKNITDNPQLSNSIEITWLLRLLDVMVCNIKFSKSSLKMGLDDSMLRYIALLSTIVLFNIFLLGKNDSNLHRESYIMEPVNFLSDLIESLKILTIEYGSLKIEFDTFQEALELLPKYIRNGPFLDDNVTAKLVYIFSDLLMNNDIEATTNIQFQSFWDNVKRISSDILVSLFGSFDQQRGFIIEELLSHIEKLPTKRIQKKLRKVGNQNIYITDFTFTLMSMLENINCYSFCNQMKDIAPENIDLLKNEYKKQEEFLFNIVEHINDTILERFFKNPSALRYVIDNFVQDLLLLISSPQWPVTEKILSSLLKRLLSVYSPSMQVSANIETICLQLIGNIGSTIFDIKCSTRDHEDNNLIKMINYPETLPHFFKSFEECIAYNETIKCRRSATRFLWNLRLGTILILEEYTKDAKEQIITVDNELKKILEQIKDGGLGPELENREADFSTIKLDYFSILHAFELLNLYDPYLKLILSLLAKDKIKLRSTAIKCLSMLASKDKVILSNPMVKETIHRRLNDSSASVKDAILDLVSINSSYFEFYQQINNNYNDDSIMVRKHVLRINEKMYDETNDIVTKVYVIARILMKIEDEEDNIIDMARLILLNRWILKVHEVLDQPEKLKEISSSVLLVMSRVAIMNEKCSQLFDLFLNFYLLNKEAHSKEAYDKITHVLTILTDFLVQKIVELNSDDTNEKNSIVDKQNFLNLLAKFADSTVSFLTKDHITALYPYMVSDEKSDFHYYILQVFRCTFEKLANFKQKFLYDLETTLLSRLPKMNVREIDEAMPLIWSVATHRHDTARVAKACSSCLSHLHPYINKANNEEAAIVVDGKLQRLIYLSTGFARFCFPKPSNDKIAFLQEGETLYEHITKCLLVLSKDKITHVIRRVAVKNLTKLCGNHPKLFNSRHVLHLLDKEFQSDQLDIKLVILESLYDLFLLEERKSVRNTGVNSTLSSNSILKKKLLKTNRVEFANDGVCSALATRFLDNILQLCLLRDLKNSLVAIRLLKLILKFGYTNPSHSIPTVIALFASTSQYIRHVAYELLEDLFEKYECLVFSSLSRGVTKAIHYSIHTDEKYYYKHDHFLSLLEKLCGTGKKNGPKFFKVLKRIMQSYLDDITDLTSTNSSVQKSIFVLCTNISNITFVSQYDLVSLLKTIDLTTDRLKEVIMDEIGDNVSSLSVSEEKLSGIILIQLSLQDLGTYLLHLYGLRDDVLLLDIVEESELKNKQLPAKKPDISKFSAQLENIEQYSSNGKLLTYFRKHVKDT
notes: Scc2, cohesin loader subunit, S. cerevisiae, residues 133-1493; pACEbac1 is a baculovirus transfer vector, so insect cells are surmised; also called Scc2T1281C; source: prepared as described in Collier et al., 2020 (pACEbac1 plasmid); purified
binding result [1]: binds

B2: Scc2 133-1493-StrepII E819C (domain or fragment, S. cerevisiae, UniProt Q04002 133-1493, looked up)
chain: B1 chain with E687C, C1149T
notes: Scc2, cohesin loader subunit, S. cerevisiae, residues 133-1493; also called Scc2E819C; source: prepared as described in Collier et al., 2020 (pACEbac1 plasmid); purified
binding result [2]: binds

B3: Scc2 133-1493-StrepII D369C (domain or fragment, S. cerevisiae, UniProt Q04002 133-1493, looked up)
chain: B1 chain with D237C, C1149T
notes: Scc2, cohesin loader subunit, S. cerevisiae, residues 133-1493; also called Scc2D369C; source: prepared as described in Collier et al., 2020 (pACEbac1 plasmid); purified
binding result [3]: binds
